Measurements reported in US10934351B2, “Cancer stem cell-specific molecule” (CHUGAI SEIYAKU KABUSHIKI KAISHA, priority 2011, dated 2021).

B1: BMP4: bone morphogenetic protein 4, polypeptide of SEQ ID NO: 4 (R&D Systems) (protein, listed as Homo sapiens)
chain: MIPGNRMLMVVLLCQVLLGGASHASLIPETGKKKVAEIQGHAGGRRSGQSHELLRDFEATLLQMFGLRRRPQPSKSAVIPDYMRDLYRLQSGEEEEEQIHSTGLEYPERPASRANTVRSFHHEEHLENIPGTSENSAFRFLFNLSSIPENEVISSAELRLFREQVDQGPDWERGFHRINIYEVMKPPAEVVPGHLITRLLDTRLVHHNVTRWETFDVSPAVLRWTREKQPNYGLAIEVTHLHQTRTHQGQHVRISRSLPQGSGNWAQLRPLLVTFGHDGRGHALTRRRRAKRSPKHHSQRARKKNKNCRRHSLYVDFSDVGWNDWIVAPPGYQAFYCHGDCPFPLADHLNSTNHAIVQTLVNSVNSSIPKACCVPTELSAISMLYLDEYDKVVLKNYQEMVVEGCGCR
B2: EPCAM (protein)
chain: QEECVCENYKLAVNCFVNNNRQCQCTSVGAQNTVICSKLAAKCLVMKAEMNGSKLGRRAKPEGALQNNDGLYDPDCDESGLFKAKQCNGTSMCWCVNTAGVRRTDKDTEITCSERVRTYWIIIELKHKAREKPYDSKSLRTALQKEITTRYQLDPKFITSILYENNVITIDLVQNSSQKTQNDVDIADVAYYFEKDVKGESLFHSKKMDLTVNGEQLDLDPGQTLIYYVDEKAPEFSMQGLKAGVIAVIVVVVIAVVAGIVVLVISRKKRMAKYEKAEIKEMGEMHRELNA

Assays:
PLR59 = test: Differentiation-enhancing effect of BMP4 (CK20 expression, quantitative real-time PCR); format: cell-based, human; details: BMP4 20 nM; irinotecan-non-treated and irinotecan-treated PLR59 (FIG. 73A)
Method: (§1) BMP4 was assessed for the differentiation-enhancing effect on irinotecan-non-treated and irinotecan-treated PLR59 and PLR123. To assess the differentiation-enhancing effect on irinotecan-non-treated cells, PLR59 and PLR123 cells suspended in the media where BMP4 (R&D Systems; a final concentration of 20 nM) or a control buffer was added to culture media were seeded at a cell density of 5×10^5 cells/1.5 ml/well to each well of a 12-well plate. The cells were passaged while changing the culture media with the same type of medium 2, 4, and 7 days after seeding. To assess the differentiation-enhancing effect on irinotecan-treated cells, PLR59 or PLR123 was seeded at a cell density of 17×10^5 cells/5 ml/flask to a 12.5-ml culture flask. Following day, irinotecan was added at a final concentration of 15 μM. The flask was incubated at 37° C. for 72 hours in a CO2 incubator. Then, the medium in the flask was changed with a medium containing BMP4 or a control buffer. The medium was further changed with the same type of medium 2, 4, and 7 days after the initial medium change. […]
(§2) Quantitative real-time PCR was carried out using the cDNAs isolated as described above.

PLR123 = test: as above; format: cell-based, human; details: BMP4 20 nM; irinotecan-non-treated and irinotecan-treated PLR123 (FIG. 73B)
Method: as §1, §2

[1] = test system: irinotecan-non-treated PLR123; test: Flow cytometry (FCM) binding activity of commercially available antibodies to cell-surface antigens; design: species or system human; details: with antibody
Method: (§3) The present inventors tested whether an anti-tumor effect can be expected with target therapy using a membrane protein expressed at a high level as the target in irinotecan-treated or non-treated PLR59 and PLR123. Commercially available antibodies shown in Table 12 were assessed by flow cytometry (FCM) for the binding activity to antigens expressed on the cell surface of irinotecan-treated or non-treated PLR59 or PLR123.

[2] = test system: irinotecan-non-treated PLR59; test: as above; design: species or system human; details: with antibody
Method: as §3

[3] = test system: irinotecan-non-treated PLR123; test: Internalization activity / anti-tumor effect with Mab-ZAP or Rat-ZAP (CellTiter-Glo); format: cell-based, human; details: with Mab-ZAP or Rat-ZAP 1 μg/ml, 72 hours
Method: (§4) Mab-ZAP and Rat-ZAP are anti-mouse IgG antibody and anti-rat IgG antibody, respectively, conjugated with saporin, a toxin that inhibits protein synthesis (Advanced Targeting Systems). To assess the activity of internalization into irinotecan-non-treated cells, PLR59 and PLR123 cells were seeded at a cell density of 30000 cells/80 μl/well to respective wells of a 96-well plate. Following day, each antibody solution was added at a final concentration of 0.01, 0.1, or 1 μg/ml to the respective wells. Then, Mab-ZAP or Rat-ZAP was added at a final concentration 1 μg/ml to the respective wells, and the plate was incubated at 37° C. for 72 hours in a CO2 incubator. To assess the activity of internalization into irinotecan-treated cells, PLR59 and PLR123 cells were seeded in a 96-well plate, and irinotecan was added at a final concentration of 15 μM to each well. The plate was incubated at 37° C. for 72 hours in a CO2 incubator. Various antibodies were assessed for the activity of internalization to cells cultured as described above in the presence or absence of irinotecan. For assay, the various antibodies were each assessed for the internalization activity into cells contained in each well where the medium was replaced with the same irinotecan-free medium as used for irinotecan-non-treated cells. Seventy-two hours after addition of antibodies and Mab-ZAP or Rat-ZAP, 10 μl of 3% SDS (Nacalai Tesque) was added to each well of the plate. The cells in the plate were lysed thoroughly by stirring the plate using a plate mixer. Then, 100 μl of CellTiter-Glo™ Luminescent Cell Viability Assay (Promega) was added to each well. The mixture in each well was assayed to determine its luminescent signal. […] In Table 14, symbols, −, +, ++, and +++, represent relative values for the internalization activity when a test antibody was assayed at a concentration of […]. […] Symbols, −, +, ++, and +++, indicate that the relative value is less than 5%, 5% or more and less than 15%, 15% or more and less than 25%, and 25% or more, respectively.

irinotecan-treated PLR59 = test: as above; format: cell-based, human; details: PLR59, Irinotecan-treated (15 μM, 72 hours)
Method: as §4

[4] = test system: irinotecan-treated PLR123; test: as above; format: cell-based, human; details: PLR123, Irinotecan-treated (15 μM, 72 hours)
Method: as §4

[5] = test system: irinotecan-non-treated PLR59; test: as above; format: cell-based, human; details: with Mab-ZAP or Rat-ZAP 1 μg/ml, 72 hours
Method: as §4

Row | Molecule | CK20 expression level (PLR59) | CK20 expression level (PLR123) | binding activity by flow cytometry (FCM), Antibody + [1] | binding activity by flow cytometry (FCM), Antibody + [2] | internalization activity level [3] | internalization activity level (irinotecan-treated PLR59) | internalization activity level [4] | internalization activity level [5]
1 | B1 | elevated CK20 levels | elevated CK20 levels |  |  |  |  |  | 
2 | B2 |  |  | 7701 | 7563 | +++ (25% or more) | +++ (25% or more) | +++ (25% or more) | +++ (25% or more)
